First the molecules themselves.
B1: NR2F2 (parent)
chain: VAHVESLQEKSQCALEEYVRSQYP

Here are results for 94 variants from the supplement of paper PMC10567573.
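Also: lentivirally expressed fusions sorted by FACS into six bins by GFP to DsRed ratio, PSI derived from sequencing read proportions per bin multiplied by bin number.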

Variants of B1 are the subject of this series. The series is described as follows: protein stability index of a GFP-peptide fusion (GPS, HEK-293T) (PSI 1-6); higher = more stable. The conditions noted are these: c terminus: a fixed tail appended.
Turning to VAHVESLQIKSQCALEEYVRSQYP, the protein stability index turned out to be 1.83.

VAHVESLQMKSQCALEEYVRSQYP: the protein stability index was found to be 2.2.

As for VAHVESLQLKSQCALEEYVRSQYP, the protein stability index was determined as 2.64.

For the variant VAHVESLQTKSQCALEEYVRSQYP, the protein stability index is 3.11.

With VAHVESLQYKSQCALEEYVRSQYP, the protein stability index was found to be 2.77.

As for VAHVESLQNKSQCALEEYVRSQYP, the protein stability index was 3.05.

Take VAHVESLQAKSQCALEEYVRSQYP: the protein stability index came out at 2.55.

For the variant VAHVESLQGKSQCALEEYVRSQYP, the protein stability index was 2.89.

For VAHVESLQKKSQCALEEYVRSQYP, the protein stability index is 3.11.

In the case of VAHVESLQSKSQCALEEYVRSQYP, the protein stability index worked out at 2.73.

Take VAHVESLQWKSQCALEEYVRSQYP: the protein stability index stood at 2.27.

With VAHVESLQDKSQCALEEYVRSQYP, the protein stability index stood at 3.59.

Consider VAHVESLQCKSQCALEEYVRSQYP, for which the protein stability index was 1.85.

For VAHVESLQEKSQCAVEEYVRSQYP, the protein stability index was 4.51.

With VAHVESLQEKSQCACEEYVRSQYP, the protein stability index was 4.01.

For the variant VAHVESLQEKSQCAIEEYVRSQYP, the protein stability index was found to be 3.89.

As for VAHVESLQEKSQCATEEYVRSQYP, the protein stability index stood at 4.91.

As for VAHVESLQEKSQCANEEYVRSQYP, the protein stability index stood at 4.42.

For VAHVESLQEKSQCAAEEYVRSQYP, the protein stability index was found to be 4.75.

In the case of VAHVESLQEKSQCAKEEYVRSQYP, the protein stability index came out at 4.3.

With VAHVESLQEKSQCAWEEYVRSQYP, the protein stability index is 2.33.

For VAHVESLQEKSQCAGEEYVRSQYP, the protein stability index worked out at 4.89.

In the case of VAHVESLQEKSQCAYEEYVRSQYP, the protein stability index worked out at 4.04.

With VAHVESLQEKSQCAFEEYVRSQYP, the protein stability index worked out at 3.48.

As for VAHVESLQEKSQCAQEEYVRSQYP, the protein stability index amounted to 4.73.

As to VAHVESLQEKSQCADEEYVRSQYP, the protein stability index stood at 4.88.

As to VAHVESLQEKSQCASEEYVRSQYP, the protein stability index was determined as 4.33.

Consider VAHVESLQEKSQCAREEYVRSQYP, for which the protein stability index was found to be 4.37.

For the variant VAHVESLQEKSQCAMEEYVRSQYP, the protein stability index came to 3.84.

VAHVESLQEKSQCAPEEYVRSQYP: the protein stability index was found to be 4.88.

As to VAHVESLQEKSQCAHEEYVRSQYP, the protein stability index turned out to be 4.35.

Regarding VAHVESLQEKSQCAEEEYVRSQYP, the protein stability index came to 5.03.

On to VAHVESLQEKSQNALEEYVRSQYP, for which the protein stability index is 4.47.

As for VAHVESLQEKSQIALEEYVRSQYP, the protein stability index came to 3.45.

On to VAHVESLQEKSQFALEEYVRSQYP, for which the protein stability index is 3.58.

Turning to VAHVESLQEKSQPALEEYVRSQYP, the protein stability index stood at 3.92.

VAHVESLQEKSQYALEEYVRSQYP: the protein stability index worked out at 3.83.

In the case of VAHVESLQEKSQMALEEYVRSQYP, the protein stability index amounted to 3.98.

In the case of VAHVESLQEKSQAALEEYVRSQYP, the protein stability index was 4.7.

Consider VAHVESLQEKSQSALEEYVRSQYP, for which the protein stability index worked out at 4.24.

For the variant VAHVESLQEKSQWALEEYVRSQYP, the protein stability index turned out to be 3.54.

For VAHVESLQEKSQHALEEYVRSQYP, the protein stability index was 4.4.

On to VAHVESLQEKSQTALEEYVRSQYP, for which the protein stability index is 4.28.

In the case of VAHVESLQEKSQGALEEYVRSQYP, the protein stability index was determined as 4.

VAHVESLQEKSQVALEEYVRSQYP: the protein stability index stood at 4.05.

With VAHVESLQEKSQRALEEYVRSQYP, the protein stability index was found to be 4.23.

For VAHVESLQEKSQQALEEYVRSQYP, the protein stability index was 4.55.

For VAHVESLQEKSQLALEEYVRSQYP, the protein stability index came to 3.92.

As for VAHVESLQEKSQEALEEYVRSQYP, the protein stability index is 4.91.

As for VAHVESLQEKSQDALEEYVRSQYP, the protein stability index is 4.36.

Regarding VAHVESLQEKSQKALEEYVRSQYP, the protein stability index was found to be 3.99.

Take VAHVESLQEKSQCKLEEYVRSQYP: the protein stability index came out at 3.88.

For the variant VAHVESLQEKSQCWLEEYVRSQYP, the protein stability index came out at 2.5.

Regarding VAHVESLQEKSQCLLEEYVRSQYP, the protein stability index came to 2.88.

In the case of VAHVESLQEKSQCTLEEYVRSQYP, the protein stability index was found to be 3.92.

VAHVESLQEKSQCPLEEYVRSQYP: the protein stability index is 4.11.

For the variant VAHVESLQEKSQCGLEEYVRSQYP, the protein stability index stood at 3.6.

On to VAHVESLQEKSQCSLEEYVRSQYP, for which the protein stability index worked out at 3.78.

For VAHVESLQEKSQCDLEEYVRSQYP, the protein stability index is 4.79.

On to VAHVESLQEKSQCCLEEYVRSQYP, for which the protein stability index was 3.41.

As to VAHVESLQEKSQCILEEYVRSQYP, the protein stability index was 3.75.

With VAHVESLQEKSQCRLEEYVRSQYP, the protein stability index amounted to 3.43.

Regarding VAHVESLQEKSQCMLEEYVRSQYP, the protein stability index worked out at 3.81.

With VAHVESLQEKSQCHLEEYVRSQYP, the protein stability index turned out to be 4.08.

As for VAHVESLQEKSQCQLEEYVRSQYP, the protein stability index was 3.57.

As for VAHVESLQEKSQCFLEEYVRSQYP, the protein stability index was 2.76.

In the case of VAHVESLQEKSQCYLEEYVRSQYP, the protein stability index is 3.19.

Turning to VAHVESLQEKSQCELEEYVRSQYP, the protein stability index amounted to 4.68.

As for VAHVESLQEKSQCVLEEYVRSQYP, the protein stability index is 3.83.

As to VAHVESLQEKSQCNLEEYVRSQYP, the protein stability index came to 4.22.

On to VAHVESLQEMSQCALEEYVRSQYP, for which the protein stability index was found to be 2.97.

Turning to VAHVESLQETSQCALEEYVRSQYP, the protein stability index was 3.92.

On to VAHVESLQEFSQCALEEYVRSQYP, for which the protein stability index came to 2.08.

Turning to VAHVESLQEWSQCALEEYVRSQYP, the protein stability index was 2.96.

For VAHVESLQEASQCALEEYVRSQYP, the protein stability index was 3.45.

In the case of VAHVESLQELSQCALEEYVRSQYP, the protein stability index came to 3.07.

In the case of VAHVESLQEPSQCALEEYVRSQYP, the protein stability index came to 3.37.

For the variant VAHVESLQEGSQCALEEYVRSQYP, the protein stability index came to 3.81.

For VAHVESLQEDSQCALEEYVRSQYP, the protein stability index was found to be 4.32.

Take VAHVESLQESSQCALEEYVRSQYP: the protein stability index is 3.76.

Turning to VAHVESLQEYSQCALEEYVRSQYP, the protein stability index turned out to be 2.63.

Turning to VAHVESLQEVSQCALEEYVRSQYP, the protein stability index worked out at 3.49.

On to VAHVESLQENSQCALEEYVRSQYP, for which the protein stability index stood at 3.98.

VAHVESLQEHSQCALEEYVRSQYP: the protein stability index was 3.7.

In the case of VAHVESLQEQSQCALEEYVRSQYP, the protein stability index amounted to 3.83.

As to VAHVESLQEISQCALEEYVRSQYP, the protein stability index amounted to 2.58.

In the case of VAHVESLQECSQCALEEYVRSQYP, the protein stability index came to 2.54.

With VAHVESLQERSQCALEEYVRSQYP, the protein stability index came to 4.09.

As to VAHVESLQEESQCALEEYVRSQYP, the protein stability index was determined as 4.48.

For the variant VAHVESVQEKSQCALEEYVRSQYP, the protein stability index stood at 4.05.

With VAHVESYQEKSQCALEEYVRSQYP, the protein stability index is 3.45.

Regarding VAHVESWQEKSQCALEEYVRSQYP, the protein stability index was determined as 3.03.

For the variant VAHVESTQEKSQCALEEYVRSQYP, the protein stability index was determined as 4.13.

In the case of VAHVESSQEKSQCALEEYVRSQYP, the protein stability index was determined as 4.29.
